# According to PMC12397908, “Cryo-EM structures of the MnmE–MnmG complex reveal large conformational changes and provide new insights into the mechanism of tRNA modification” (Nucleic Acids Research, 2025):
# B1: Escherichia coli MnmG (enzyme, E. coli)
# chain: MFYPDPFDVIIIGGGHAGTEAAMAAARMGQQTLLLTHNIDTLGQMSCNPAIGGIGKGHLVKEVDALGGLMAKAIDQAGIQFRILNASKGPAVRATRAQADRVLYRQAVRTALENQPNLMIFQQAVEDLIVENDRVVGAVTQMGLKFRAKAVVLTVGTFLDGKIHIGLDNYSGGRAGDPPSIPLSRRLRELPLRVGRLKTGTPPRIDARTIDFSVLAQQHGDNPMPVFSFMGNASQHPQQVPCYITHTNEKTHDVIRSNLDRSPMYAGVIEGVGPRYCPSIEDKVMRFADRNQHQIFLEPEGLTSNEIYPNGISTSLPFDVQMQIVRSMQGMENAKIVRPGYAIEYDFFDPRDLKPTLESKFIQGLFFAGQINGTTGYEEAAAQGLLAGLNAARLSADKEGWAPARSQAYLGVLVDDLCTLGTKEPYRMFTSRAEYRLMLREDNADLRLTEIGRELGLVDDERWARFNEKLENIERERQRLKSTWVTPSAEAAAEVNAHLTAPLSREASGEDLLRRPEMTYEKLTTLTPFAPALTDEQAAEQVEIQVKYEGYIARQQDEIEKQLRNENTLLPATLDYRQVSGLSNEVIAKLNDHKPASIGQASRISGVTPAAISILLVWLKKQGMLRRSA
# notes: E. coli MnmG in pET14b, preceded by an N-terminal His-tag and TEV cleavage site; domains described over residues 1-629; Homodimer (β2); also called EcMnmG; β2; source: E. coli BL21(DE3), purified (Ni-NTA IMAC, Superdex200 SEC)
# Legend:
# [1] = target: B1; test: ITC; wild-type or mutant MnmE 700 μM in the syringe, MnmG 70 μM in the cell; with 1 mM FAD and 1 mM GppNHp; 25°C; 20 mM HEPES pH 7.5, 75 mM NaCl, 75 mM KCl, 5 mM MgCl2, 2 mM β-mercaptoethanol; one set of sites model; conditions: both partners purified
# [2] = target: the molecule itself; test: cryo-EM structure; MnmE–MnmG complex formed with GppNHp, FAD and K+ (20 mM HEPES pH 7.5, 150 mM KCl, 5 mM MgCl2, 2 mM DTT), purified by SEC; α2β2 and α4β2 classes
# [3] = target: B1; test: ITC; MnmE 700 μM in the syringe, MnmG 70 μM in the cell; no ligands; 25°C; 20 mM HEPES pH 7.5, 75 mM NaCl, 75 mM KCl, 5 mM MgCl2, 2 mM β-mercaptoethanol; one set of sites model; conditions: both partners purified
# [4] = target: B1; test: ITC; MnmE 700 μM in the syringe, MnmG 70 μM in the cell; with 1 mM FAD; 25°C; 20 mM HEPES pH 7.5, 75 mM NaCl, 75 mM KCl, 5 mM MgCl2, 2 mM β-mercaptoethanol; one set of sites model; conditions: both partners purified
# [5] = target: B1; test: ITC; MnmE 700 μM in the syringe, MnmG 70 μM in the cell; with 1 mM GppNHp; 25°C; 20 mM HEPES pH 7.5, 75 mM NaCl, 75 mM KCl, 5 mM MgCl2, 2 mM β-mercaptoethanol; one set of sites model; conditions: both partners purified
Kd [1] [nM],stoichiometry N [1],Kd [3] [µM],stoichiometry N [3],Kd [4] [nM],stoichiometry N [4],Kd [5] [nM],stoichiometry N [5],Binder,stoichiometry N [2]
1700,0.6,,,,,,,"Escherichia coli MnmE-Δ450–454 (domain or fragment, E. coli, UniProt P25522 1-449, looked up, E. coli MnmE without the C-terminal conserved 450FCIGK454 motif (deletion of residues 450-454; K454 is the C-terminal residue of MnmE); C-terminal truncation of m1; made from the wild-type open reading frame in pET20b; source: E. coli BL21(DE3), purified (Ni-NTA IMAC, alkaline phosphatase treatment, second Ni-NTA, Superdex200 SEC)) MSDNDTIVAQATPPGRGGVGILRISGFKAREVAETVLGKLPKPRYADYLPFKDADGSVLDQGIALWFPGPNSFTGEDVLELQGHGGPVILDLLLKRILTIPGLRIARPGEFSERAFLNDKLDLAQAEAIADLIDASSEQAARSALNSLQGAFSARVNHLVEALTHLRIYVEAAIDFPDEEIDFLSDGKIEAQLNDVIADLDAVRAEARQGSLLREGMKVVIAGRPNAGKSSLLNALAGREAAIVTDIAGTTRDVLREHIHIDGMPLHIIDTAGLREASDEVERIGIERAWQEIEQADRVLFMVDGTTTDAVDPAEIWPEFIARLPAKLPITVVRNKADITGETLGMSEVNGHALIRLSARTGEGVDVLRNHLKQSMGFDTNMEGGFLARRRHLQALEQAAEHLQQGKAQLLGAWAGELLAEELRLAQQNLSEITGEFTSDDLLGRIFSS",
4100,0.8,,,,,,,"Escherichia coli MnmE-Δ436–454 (domain or fragment, E. coli, UniProt P25522 1-435, looked up, E. coli MnmE without the entire C-terminal swivel helix (deletion of residues 436-454; K454 is the C-terminal residue of MnmE); C-terminal truncation of m1; made from the wild-type open reading frame in pET20b; source: E. coli BL21(DE3), purified (Ni-NTA IMAC, alkaline phosphatase treatment, second Ni-NTA, Superdex200 SEC)) MSDNDTIVAQATPPGRGGVGILRISGFKAREVAETVLGKLPKPRYADYLPFKDADGSVLDQGIALWFPGPNSFTGEDVLELQGHGGPVILDLLLKRILTIPGLRIARPGEFSERAFLNDKLDLAQAEAIADLIDASSEQAARSALNSLQGAFSARVNHLVEALTHLRIYVEAAIDFPDEEIDFLSDGKIEAQLNDVIADLDAVRAEARQGSLLREGMKVVIAGRPNAGKSSLLNALAGREAAIVTDIAGTTRDVLREHIHIDGMPLHIIDTAGLREASDEVERIGIERAWQEIEQADRVLFMVDGTTTDAVDPAEIWPEFIARLPAKLPITVVRNKADITGETLGMSEVNGHALIRLSARTGEGVDVLRNHLKQSMGFDTNMEGGFLARRRHLQALEQAAEHLQQGKAQLLGAWAGELLAEELRLAQQNLSEITG",
,,,,,,,,B1,2
420,0.6,3.4,0.9,800,0.8,770,1.1,"Escherichia coli MnmE (wild type) (enzyme, E. coli, UniProt P25522 1-454, looked up, E. coli MnmE, wild-type open reading frame in pET20b, preceded by an N-terminal His-tag and TEV cleavage site; 454 residues (K454 is the C-terminal residue); Homodimer (α2); also called EcMnmE; α2; source: E. coli BL21(DE3), purified (Ni-NTA IMAC, alkaline phosphatase treatment, second Ni-NTA, Superdex200 SEC)) MSDNDTIVAQATPPGRGGVGILRISGFKAREVAETVLGKLPKPRYADYLPFKDADGSVLDQGIALWFPGPNSFTGEDVLELQGHGGPVILDLLLKRILTIPGLRIARPGEFSERAFLNDKLDLAQAEAIADLIDASSEQAARSALNSLQGAFSARVNHLVEALTHLRIYVEAAIDFPDEEIDFLSDGKIEAQLNDVIADLDAVRAEARQGSLLREGMKVVIAGRPNAGKSSLLNALAGREAAIVTDIAGTTRDVLREHIHIDGMPLHIIDTAGLREASDEVERIGIERAWQEIEQADRVLFMVDGTTTDAVDPAEIWPEFIARLPAKLPITVVRNKADITGETLGMSEVNGHALIRLSARTGEGVDVLRNHLKQSMGFDTNMEGGFLARRRHLQALEQAAEHLQQGKAQLLGAWAGELLAEELRLAQQNLSEITGEFTSDDLLGRIFSSFCIGK",2
2200,0.5,,,,,,,"Escherichia coli MnmE K454A (enzyme, E. coli, UniProt P25522 1-454, looked up, E. coli MnmE point variant made by QuikChange from the wild-type open reading frame in pET20b; Variant of m1; source: E. coli BL21(DE3), purified (Ni-NTA IMAC, alkaline phosphatase treatment, second Ni-NTA, Superdex200 SEC)) MSDNDTIVAQATPPGRGGVGILRISGFKAREVAETVLGKLPKPRYADYLPFKDADGSVLDQGIALWFPGPNSFTGEDVLELQGHGGPVILDLLLKRILTIPGLRIARPGEFSERAFLNDKLDLAQAEAIADLIDASSEQAARSALNSLQGAFSARVNHLVEALTHLRIYVEAAIDFPDEEIDFLSDGKIEAQLNDVIADLDAVRAEARQGSLLREGMKVVIAGRPNAGKSSLLNALAGREAAIVTDIAGTTRDVLREHIHIDGMPLHIIDTAGLREASDEVERIGIERAWQEIEQADRVLFMVDGTTTDAVDPAEIWPEFIARLPAKLPITVVRNKADITGETLGMSEVNGHALIRLSARTGEGVDVLRNHLKQSMGFDTNMEGGFLARRRHLQALEQAAEHLQQGKAQLLGAWAGELLAEELRLAQQNLSEITGEFTSDDLLGRIFSSFCIGA",
